In the test the target is dual anticoagulant and antiplatelet (APAC) agent (human) (UniProt P02768). As to the kind of experiment: atomic force microscopy (tapping mode AFM); APAC alone (1:1000 and 1:20,000 dilution of stock) in PBS with 20 mM MgCl2, drop-casted on mica, imaged in air; volume distribution of 340 molecules evaluated with Gwyddion.

As to “dual anticoagulant and antiplatelet (APAC) agent (from UniProt P02768 25-609)”, the stoichiometry N was determined as 3.

These data come from article PMC8724117.
